From the supplement of paper PMC9170038

Test system: MS2 coat protein
Assay: apparent KD of MS2 coat protein; higher = weaker reporter binding
Conditions: Eterna round: R107
Procedure, shortened: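 Apparent KD is reported per design as the median of normalised binding-curve fits across its clusters. The RNA switches were made by on-chip transcription from Illumina sequencing clusters. SNAP-549-labelled MS2 coat protein was then added in twofold steps (0.7 or 1.5 nM to 3 µM; 0.8–1.5 h to 10–20 min per step) in 100 mM Tris-HCl pH 7.5, 80 mM KCl, 4 mM MgCl2, without or with constant ligand.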

[1] = input ligand: theophylline 20 uM
[2] = input ligand: theophylline 2 mM
[3] = input ligand: tryptophan 2.4 mM

| Sequence | apparent KD of MS2 coat protein (input ligand: arginine 13.2 mM) [nM] | apparent KD of MS2 coat protein [1] [nM] | apparent KD of MS2 coat protein [2] [nM] | apparent KD of MS2 coat protein [3] [nM] | apparent KD of MS2 coat protein (input ligand: none) [nM] |
| --- | --- | --- | --- | --- | --- |
| AACAUGAGGAUCACCCAUGUGUCCUCGAAACGAGGACCGGUACGGCCGCCACUCGAAUAAGCUGUUGACGAAAAGUCAGCAGCAA [Mat - Exclusion - Trytophan A - D19] | 91 | 327 | 314 |  |  |
| CGAAUACGAAUUGAUACCAGCAUGUUAACAUGAGGAUCACCCAUGUUAAGGAUAACAUAAUGCCCUUGGCAGCAACGUAAAUUCG [Ab] | 16.7 | 17.7 |  | 14.4 |  |
| UUGGAUAUGCGAAGGAGCGGGAAAUAUAUAUAUAUAAUCCUAACAUGAGGAUCACCCAUGUCCCAGGUAGGUCGCGCAUAUUUGG [12.H] | 48.1 | 69.3 | 70.7 | 49.9 | 51.7 |
| AUCGUACCUGAUGAUACCAGCAUGUGCUCGUAACAUGAGGAUCACCCAUGUGAUCAGUGAUGCCCUUGGCAGCAUGAUCGGUACA [Same State - Theophylline B (Freestyle 16)] | 67 | 49.2 | 14.1 | 61.2 | 66 |
| UCGCUCUGGGUGAAUUCCGGAGAUGUGGAAGGAGCGGACGAAAGUCCAGGUAGGUCGCCAUCGGACAUGAGGAUCACCCAUGUAC [Same State - Arginine A (Freestyle 22)] | 55.6 | 99.8 | 100 | 89.9 | 122 |
| CCUAUCCAGUCGGCCGCCACUGACCAUUUGGAACAGUGGGUGAAAACAUGAGGAUCACCCAUGUACAGGACCGGGACUGUAUAGG [Ex Tryptophan B 20] | 14.7 | 15.7 | 13.9 |  |  |
| CUUGGUAGAUCCUAGCUGCCAAGAGGUGAUACCAGCAUCGAAAGAUGCCCUUGGCAGCACCAACAUGAGGAUCACCCAUGUAAUA [(MT)''-(M)'-(T')-(Theo)-(Ms2)_Design1/22_4] | 24.3 | 178 |  | 77.4 |  |
| CGGCCCUCACUUGAGGAUCACCCAAGUGAUACCAGCCUGGAAACAGGCCCUUGGCAGCACUAGGUCAUCAAAGAUGACCAAGCCG [TheoAX 28 #OpenEnded #AlternativeMS2] | 14.8 | 26 | 146 | 13.4 | 12.8 |
| AGACAUGAGGAUCACCCAUGUAGUACGGAUACCAGAUCCAGAUGUAUCCCUUGGCAGCUGUGGUACAGCGUUGCAACGCUCCUAG [Exclusion - Theophylline A (Freestyle 18)] | 15 | 23.9 |  | 15.2 |  |
| GGCUACAUGAGGAUCACCCAUGUUUCUCGUCGAGGACCGGUACGGCCGCCACUCGUUGUUGGGACUCAGUAUCAGUCGUUAGUUU [theeternabot_sameState_MS2_Trp_A_36] | 23.8 | 34.3 | 40.2 |  |  |
| GCGAUGGAGCGAAGGAGCGGCUAAAUGUAACACAUGAGGAUCACCCAUGUUCCAAGAUGUGGCCAGGUAGGUCGCGCUCCAUCGC [SSAB NP+V+V2 #15] | 61.8 | 229 | 185 | 144 | 175 |
| UUAUGCAGGUCGGCCGCCACUACACACAUGAGGAUCACCCAUGUAGUUACUGGGUGAAGUGGCAGUAGGACCGGGACCCGCACAU [Brourdmod21] | 151 | 388 | 612 | 383 | 367 |
| AGGACGGUCGGAAGGAGCGGUACAUGAGGAUCACCCAUGUACUCCUGGGCAUCCGUAGUGUGCCAGGUAGGUCGCCGAUUGCGGG [XArg-B8] | 12.1 | 19.8 | 21.5 | 16.2 | 12.1 |
| UCAUUUGAGUGAGAUGUAAGGUAUCAUGAUACCAGUAGAUAAUUAUACCCUUGGCAGCAUAACAUGAGGAUCACCCAUGUACAUG [Ac] | 20.1 | 27 |  | 19.6 |  |
| AUAUAUAUGCGAAGGAGCGGGAAAUAUAUAUAUAUAAUCCUAACAUGAGGAUCACCCAUGUCCCAGGUAGGUCGCGCAUAUAUAU [12.A] | 68.2 | 88.5 | 87 | 72.2 | 74 |
| AAUAUAAAAUAAAGAAAAUUUAUAUCUGAUACCAGACUCUCAUGGGUCCCUUGGCAGCAGUAACAUGAGGAUCACCCAUGUAUUA [JR_Nu_SSTheophyA_Sub026] | 67.7 | 70.6 |  | 123 |  |
| ACACGGGCAUGAGGAUCACCCAUGUAAUAACGAGGACCGGUACGGCCGCCACUCGUGCACCGUGACCUGUACGAAAAGUGCAGGA | 13.6 | 26.5 | 29.5 | 9.98 | 20.8 |
| CUUGUUUGUGGAAGGAGCGCGAUUACAUAACAUGAGGAUCACCCAUGUAAGAAAUUAUUCAUGCAGGUAGGUCGCCAUUGGUGGG [Same State Arginine B GF8] | 64.1 | 53.1 | 23.7 | 30.6 | 62.2 |
| UGGUACAUGAGGAUCACCCAUGUUCCAGAUACCAGUGUCCCGGUGCACCCUUGGCAGCUGGUGGUACAUGAGGAUCACCCAUGUG [Exclusion Theophylline A GF13] | 17.9 | 56.3 | 73.1 | 37.3 | 42.2 |
